Reference: the DeepSol protein solubility set

Assay: soluble on expression in E. coli; label from the status in PepcDB or PDB records

Row | Sequence | soluble on expression in E. coli
1 | MELDVFAGQEKSELSMIEVARAILETRGRDKEMYFNDLVNEIQNYLEKSDADIRSSLPFFYSDLNTDGSFIPLGDNKWGLRSWYAIDEIDEEVITLEDIDENAPKRKNKKVNAFMDGDEDAIDYNDDDPEDENFTPSSAILEYDNDNEDDENAEVESYDSELNEIIPDDDLDDVELSEEDDDDDDDYEDETND | not soluble
2 | MNRKPRTRSTIVPGRKMITEIVALREAGLDDTRPSYLEEPTVIVDESMMNDSANLEEREWRKQGLSEKQMFAILEKRKQTQLNNARKRLEKEMYGAKTFKELIACREYSECESDSENTVNQNVRSASVFAIPALPKHISEKSMMGSPIANSRGSGKAGLSCSTPKSSSDTSMRSLRSLDISHVVNTDRLDAERVTVHTKSVVIPTILEERESTLQKTLTIEKNHSSQLQKTFTVAEDAPEELQKTVTIEKNQSSEMQRTFTVAKDASKEQSQLQRTVTIEKNQSSQLQGNFTVAKDAPEELQKTVTIEKNQSSEMQGTVTVAKDAEHSSLQKTFTKPTEKDESSLQRTFNVANRDENNDSTLQKTFIIEERDAYEQGTTSVGVKPPVLAQNTMEGGEKRRTSKVTSDERERRNASISNPLHNSMLEKEEIQSPGANFFKHPRKKIRPVVQTPPRIKATSRLSTESNKERTIEMESVAEERTMEADSIGSSYISPTFNASRVSPVPEVPEKVEPMHVSKAATPKSIRHTDNSIRNIGPTNNVECARAALLSTPTRMDIVDSVNRVTPARRYEQPTFASLVKRMNMKDANRLLEETSRKNTPAKTTATTSSAAVRMVLEDDEEDQATEVIEKRSENGGVIVDGEDEAADSSNRSLNIELNALTVNEEPAHDISAIDFPEDDTNEMRSSSDEEEMEARPDPRKKSSRRLGLLSDSIALGLASSSRRRPNDTFVDETWYPEPNSKGNRRPRTHRGMKLKEHQLMKPEDAPDGVRRSTRVRVKPVRSWLGEQPVYVNSPISGCKRLTGVTAVVIKDPRLCYYRTADVRTATERELKDKANKRALAQEKKQQRQNARSGRRHDSDDDEEDDM | not soluble
3 | MKFSALGDQAIIVTFGEEIKRDIYEKVQRLFQALQQHPFAGMIECVPSFTSLAVYYNVYEVWKGNERSERSHDYVRQYIKELCDSYKEEVKQDVKHISIPVCYGGEYGPDLEEVAHYHGLQVEDVIRIHSETTYFVYMLGFTPGFPYLGGLSKELETPRKETPRLQISPGSVGIGGNQTGIYPLETPGGWNIIGRTPISLFNPEEEIPTYIQSGMYLRFIPITKEEYVSLEGAKKWMLEHHHHHH | soluble
4 | MAKKDEHLRKPEWLKIKLNTNENYTGLKKLMRENNLHTVCEEAKCPNIHECWAVRRTATFMILGSVCTRACRFCAVKTGLPTELDLQEPERVADSVALMNLKHAVITAVARDDQKDGGAGIFAETVRAIRRKSPFTTIEVLPSDMGGNYDNLKTLMDTRPDILNHNIETVRRLTPRVRARATYDRSLEFLRRAKEMQPDIPTKSSIMIGLGETKEEIIEVMDDLLANNVDIMAIGQYLQPTKKHLKVQKYYHPDEFAELKEIAMQKGFSHCEAGPLVRSSYHADEQVNEASKKR | not soluble
5 | MTKPVLQDGETVVCQGTHAAIASELQAIAPEVAQSLAEFFAVLADPNRLRLLSLLARSELCVGDLAQAIGVSESAVSHQLRSLRNLRLVSYRKQGRHVYYQLQDHHIVALYQNALDHLQECR | soluble
6 | MARGLNRVFLIGALATRPDMRYTPAGLAILDLTLAGQDLLLSDNGGEREVSWYHRVRLLGRQAEMWGDLLDQGQLVFVEGRLEYRQWEREGERRSELQIRADFLDPLDDRGKERAEDSRGQPRLRAALNQVFLMGNLTRDPELRYTPQGTAVARLGLAVNERRQGAEERTHFVEVQAWRDLAEWAAELRKGDGLFVIGRLVNDSWTSSSGERRFQTRVEALRLERPTRGPAQAGGSRSREVQTGGVDIDEGLEDFPPEEELPF | soluble
7 | PIVLFPGQQATLSPQGISSPSPFDHTAITAWLRNQLVFYDTPLAEVVDTLNRHRHGRIFITNQKLKALKVSGVFSTDEPDTALDVMINTLPIHLLRLTDYLVLI | not soluble
8 | MSLNKVLVVEDEQLLAQNLQDYLSAQGLEVRIAHDGAEGIGLAETFAPDVLVFDYRLPDMEGFEVLDAVRQNRTCHFVLITGHPTAEVCERARQLGVSHILFKPFPLAELARAVCDLLGIQREAKPGASPSEGFVERRQSRTESFPLQLYDGSWVLADRRRNRSEAMAPDDDQMLTGEEGHHHHHH | not soluble
9 | GPGSMWVCGEAVLMRALNLLHARVRRCMRFSCRIPPQYCECPCRRMRVCPLRRDVSLIVLLFGLTPTTFSFSATSHDASRTKATRTHTHTHTPLFPARPMGSPLIAVIGPNPAFQKTLALDELRVDEVNRAATVHSYTGGKGTNFCRASACCKESPHFCRTTLHTFVGGKTGERVIDLLHQEGIAVYPVTVPAETRTCITCLDTQNSTMTELIEPSAAVPDDAAKDMDRALLKALEHAGGMAIMGSLPDGSSPDLYTRWTEMAAAAQKPVLIDAVKGIEASLKVPGVHSILKVNMRELNKLTGQSTPESAFEYAMQMWTVRVLAVTDGPRSAYIQERGQPLQVVHIPKVDGVVSPLGAGDTADAIFLAKYIHGTTPVEAFRLALAAASANCLQKEAGVFAQHEMRRIADGITIGSSRPHSSSNTRA | not soluble
10 | MRDPNKWAEVKKTLPLVGAGRSGGRFRHPSARGKLTVQYVNRVRHYYDLLVRLSEKKRSGPSGRGLEHHHHHH | not soluble
11 | SATSVLCCLRCCRDGGTGHIPLKEMPAVQLDTQHMGIWGIGVATQKVNLNQIPLGRDMHSLVMRNDGALYHNNEEKNRLPANSLPQEGDVVGITYDHVELNVYLNGKNMHCPASGIRGTVYPVVYDDDSAILDCQFSEFYHTPPPGFEKILFEQQIF | soluble
12 | MAVLYKSFQSVLEDKNHKKMFHPRVIYTANISTSQIAKEIAAYSSLSPGDVKNTLDNLVTVMGQHLQASESVSLDGFGTFRMVMKSNGKGVETSEEVSAAQASLTVRFLPNFTKNPDRTTATRSLVTGAKCVRFDRTDTPASGSGNTNKPGGGDGGEGGGEEAPDPTV | not soluble
13 | YLYVYKGVYATDEDVPVNPLTGERLRMGGNTSTQAYFKAGDPIWVDVNGDYIIDEKDKVIVGNSQPRMTGGISINLRYKAFSINTNCSFTLRRDIINKALADRFRAYGTPVAGKVNLTGSGALTPIEAYNFWTEDNIYAQYPNPFDYTRSSIIQPFRYDQTLFMEDGSYFKINGISVAYTIPKKMLDFFRISRCQLNFSMNNIYTFSKYSGINPENVNNLGYDTSGGYPNGRTVTFGVSMDF | not soluble
14 | MLNDVYNKRIIELAGNIPRIGRLERPDASATAHSKLCGSTVTIDLKMDGDTVTDFAHIVKACALGQASSSIMASHVVGSTASELKALRETVRKMLKENGAPPDGKWADIAMLEPVRDYKARHASTLLTFDAVVDAIGQIEAQNDGAKATA | not soluble
15 | MIRVASLIKAMSDTQLQIAQGASPLTGLPGNSAIEQEIKRRLNSGNAFGMIYADLNQFKAFNDTYGFQYGDSIIKLLGKILMQDSLKADDLAFVGHVGGDDFIILTTQNVTKTLGETILLSFQEQLSAMQGAQDLSLALAGLIIYPHTAWTPATLSERIAAVKREAKKAHCNYFLLRELEHHHHHH | not soluble
16 | MSEQQPNLRERRRSETRRLVQAHAVRLFTDHGYDAVTVADVAEAAGVSAMTVYRHFPTKEDLVLIDQPAQLIAEHVAASSAAQPLVRRVGSALIDAATNWTGGNGDEQAANERFLLDCLRLMVSTPALRARHLDSQYALQQAIVDALGDDATGPDAAFRAQAATSACIAAMHTALTRWVEDDGHTKLPDLIARALTASFGDDAVATRRKG | not soluble
17 | KGESYKGKVAVASVVLNRTEKKGFPDTIRGVIYQKNAFEPVANGSINQKPDKESIEAAEEALSSKNRETDAIFFYNPKTASDNWIRSRKIVEKIGRHVFAV | not soluble
18 | MDVIPLSLGLETMGGLVEKVIPRNTTIPVARAQDFTTFKDGQTAMSIHVMQGERELVQDCRSLARFALRGIPALPAGGAHIRVTFQVDADGLLSVTAMEKSTGVEASIQVKPSYGLTDSEIASMIKDSMSYAEQDVKARMLAEQKVEAARVLESLHGALAADAALLSAAERQVIDDAAAHLSEVAQGDDVDAIEQAIKNVDKQTQDFAARRMDQSVRRALKGHSVDE | soluble
